According to US20230119254A1, “SYNERGISTIC AND TARGETING COMPOSITIONS FOR TREATMENT OF ARTERIAL AND VENOUS THROMBOSIS” (AstraZeneca AB, priority 2020, published 2023):
“Also recorded” adds a separate entry of the source. Like-named read-outs stand apart in the source and are kept apart here.

Columns and labels:
[1] = Pharmacokinetics (ADPase activity) after single IV bolus in rabbits
[2] = tested on: human platelet-rich plasma (PRP); experiment: ADP-induced human platelet aggregation in platelet-rich plasma; type: cell-based; settings: ADP-activated, light transmission, 6 min
Method: FIGS. 1A and 1B show the effect of apyrase APT102 used as such and of a fusion protein thereof, APT402, on platelet aggregation in an ex vivo reaction mixture comprising human platelet-rich plasma (PRP) activated with 20 μM ADP. […] X axis is the assay time (6 min duration), Y axis is the light transmission. […] Arrows indicate addition of ADP and apyrases.
(§1) The inhibitory activity on FX activation was assayed using peripheral blood mononuclear cells (PBMC) purified from normal human donors and anesthetized rabbits by standard methods. […] As expected, APT102 had no effect on PBMC pro-coagulant activity.

[3] = Haemostasis parameters in healthy rabbits with bolus plus infusion; type: in vivo, rabbit
[4] = Malachite green assay of enzymatic kinetic parameters; type: biochemical
IVC thrombosis = type: in vivo, mice; settings: for reduction of thrombus weight: mice
Method: An electrical injury model of venous thrombosis was used for acute study (Diaz J A et al. Thromb Haemost. 104: 366-375, 2010.
Mice were randomized into the following four groups (n=10/group).
The EIM consistently generated IVC thrombosis in all mice with the mean thrombus weight of 22.5 mg. Thrombus weight, BT, APTT and TCT were measured 48 h post DVT induction.

thrombin generation = experiment: Thrombin generation during and after bolus plus infusion in rabbits; type: in vivo, rabbit; settings: for thrombin generation: 0.2 mg/kg bolus then 24 μg/kg/min for 120 min
[5] = PK (ELISA) with bolus plus continuous IV infusion in rabbits; settings: rabbit, bolus plus 120 min infusion; significantly decreased 60 min after discontinuation
[6] = tested on: rabbit platelet rich plasma; experiment: ADP-induced platelet aggregation in rabbit PRP during and after bolus plus infusion; type: in vivo; settings: for ADP-induced (50 uM) platelet aggregation in rabbit PRP: 0.2 mg/kg bolus then 24 μg/kg/min for 120 min
[7] = rabbit, in vivo, iv, 0.4 mg/kg
[8] = rabbit, in vivo, iv, 0.2 mg/kg
[9] = tested on: IVC fibrosis (collagen deposition); experiment: Chronic murine electrolytic injury model (EIM) of DVT, fibrosis; type: in vivo; settings: mice, 1.0 mg/kg ip bolus daily for 14 days; for reduction of collagen deposition: Masson's trichrome 14 days post DVT induction
Text: In a chronic fibrotic study, mice were randomized and blinded into the following groups (n=5-12/group).
Collagen deposition was stained with Masson's trichrome 14 days post DVT induction.

[10] = tested on: thrombin generation in human platelet rich plasma; experiment: Thrombin generation by calibrated automated thrombography (CAT) in ADP-activated human PRP; type: cell-based; settings: for peak thrombin concentration / time to peak thrombin: 20 uM ADP-activated human platelets, equal molar concentrations
Method: Shown are thrombograms of nanomolar thrombin that were generated in human platelet rich plasma activated with […].
Thrombin generation in citrated human platelet rich plasma (PRP) was quantified by calibrated automated thrombography (CAT) using the Thrombinoscope system (Synapse), according to methods developed by Hemker et al. Aliquots of PRP were incubated with agents for 15 min at room temperature, and then for 5 min at 37° C. in wells of 96-well plates. Thrombin generation was initiated by addition of 0.5 pM tissue factor and CaCl2 to 16.7 mM and monitored in a microtiter plate fluorometer (Fluoroskan Ascent, Thermo Electron Corp., Vantaa, Finland). Thrombograms (nM thrombin generated vs. time) were generated using the Thrombinoscope software, as were key thrombin generation parameters: lag time to onset of thrombin generation (min), peak thrombin concentration (nM), time to peak thrombin (min), and endogenous thrombin potential (ETP; integrated area under the thrombogram curve).
The effects of APT102, annexin V, APT102+annexin V, and APT402 at equal molar concentrations on thrombin generation from 20 uM ADP-activated human platelets were compared using CAT assays (FIG. 3). […] These features were mimicked by APT402.

platelet aggregation = experiment: Ex vivo ADP-induced platelet aggregation after single IV bolus in rabbits; settings: rabbit, 0.40 mg/kg IV bolus
arterial thrombosis = experiment: Electrical injury model (EIM) of arterial thrombosis in rabbits; type: in vivo, rabbit
Method: Rabbits were randomized into the following eleven groups with the treatments initiated 30 min before electrical injury.
Electrical injury generated occlusion in 60% of the rabbits treated with saline within 2 h. Average thrombosis weight was 7.8 mg.

[11] = tested on: thrombotic sites of injured arteries; settings: rabbit, in vivo
Method: A. APT402 was conjugated to the fluorescent dye (LS288); B. Fluorescent intensity in the injured artery of the rabbit treated with APT402 at 0.2 mg/kg bolus followed by 12 mg/kg/min for 120 min. Each bar represents the mean of 3 readings. C.
A near infra-red (NIR) fluorescent dye (LS288, Ex/Em 773/793) in methanol was conjugated to the functional amines of APT402 (˜1:1). […] For in vivo imaging of the thrombus by fluorescent molecular tomography (FMT), a custom built, fiber-based, portable, video-rate system was used as described (CITE).

[12] = tested on: peripheral blood mononuclear cells (PBMC) from anesthetized rabbits; experiment: LPS-induced Factor X activation in rabbit PBMC; type: cell-based; settings: rabbit PBMCs
Method: (§2) Peripheral blood mononuclear cells were incubated with LPS (1 mg/ml) to induce tissue factor expression and FX activation measured in the presence of FVII, FX and chromogenic substrate 52765.
as §1

[13] = tested on: peripheral blood mononuclear cells (PBMC) from normal human donors; experiment: LPS-induced Factor X activation in human PBMC; type: cell-based; settings: human PBMCs
Method: as §2, §1

[14] = rabbit, bolus plus 120 min infusion, significantly decreased 60 min after discontinuation

B1: APT402: fusion protein of apyrase APT102, 20 amino acid linker and annexin V (SEQ ID NO: 7-10) (protein)
chain: MMSFVSLLLVGILFHATQADAPEVLPPGLKYGIVLDAGSSGTRVYVYQWPAEKENNTGVVSQTFKCSVKGSGISSYGNNPQDVPRAFEECMQKVKGQVPSHLHGSTPIHLGATAGMRLLRLQNETAANEVLESIQSYFKSQPFDFRGAQIISGQEEGVYGWITANYLMGNFLEKNLWHMWVHPHGVETTGALDLGGASTQISFVAGEKMDLNTSDIMQVSLYGYVYTLYTHSFQCYGRNEAEKKFLAMLLQNSPTKNHLTNPCYPRDYSISFTMGHVFDSLCTVDQRPESYNPNDVITFEGTGDPSLCKEKVASIFDFKACHDQETCSFDGVYQPKIKGPFVAFAGFYYTASALNLSGSFSLDTFNSSTWNFCSQNWSQLPLLLPKFDEVYARSYCFSANYIYHLFVNGYKFTEETWPQIHFEKEVGNSSIAWSLGYMLSLTNQIPAESPLIRLPIEPPVGSTSGGSTSGGSTSGSGATIAQVLRGTVTDFPGFDERADAETLRKAMKGLGTDEESILTLLTSRSNAQRQEISAAFKTLFGRDLLDDLKSELTGKFEKLIVALMKPSRLYDAYELKHALKGAGTNEKVLTEIIASRTPEELRAIKQVYEEEYGSSLEDDVVGDTSGYYQRMLVVLLQANRDPDAGIDEAQVEQDAQALFQAGELKWGTDEEKFITIFGTRSVSHLRKVFDKYMTISGFQIEETIDRETSGNLEQLLLAVVKSIRSIPAYLAETLYYAMKGAGTDDHTLIRVMVSRSEIDLFNIRKEFRKNFATSLYSMIKGDTSGDYKKALLLLCGEDD
modifications: CDS (1)..(2397)
[1]; 6 h vs 20 min
  extension of elimination half-life compared to annexin V: 18 fold
[1]; rabbit, 0.40 mg/kg IV bolus
  distribution phase half-life: 0.5 h
[1]; rabbit, 0.40 mg/kg IV bolus, ADPase activity
  time of maximal activity in the plasma after administration: 30 min
[2]
  inhibition of ADP-induced human platelet aggregation: dose-dependently inhibits; also recorded: comparable potency to APT102
[3]
  ACT vs control animals: no differences
  PT vs control animals: no differences
  aPTT vs control animals: no differences
  bleeding time vs control animals: no differences
  platelet counts vs control animals: no differences
[4]
  enzymatic kinetic parameters for ATP and ADP: comparable to those of APT102
IVC thrombosis; 1.0 mg/kg ip bolus daily for 2 days
  reduction of thrombus weight: 53%
IVC thrombosis; high dose: 0.2 mg/kg ip bolus then 0.09 mg/kg/h sc for 48 h
  reduction of thrombus weight: 65%
IVC thrombosis; low dose: 0.2 mg/kg ip bolus then 0.03 mg/kg/h sc for 48 h
  reduction of thrombus weight: 44%
IVC thrombosis; mouse, in vivo
  prolongation of BT: did not cause detectable prolongation
  prolongation of TCT: did not cause detectable prolongation
  prolongation of aPTT: did not cause detectable prolongation
IVC thrombosis; mouse, in vivo, ip, 1 mg/kg
  bleeding time: without increasing bleeding time
Thrombin generation; at 60 and 110 min
  thrombin generation: effectively attenuated
Thrombin generation; at 180 min
  thrombin generation: returned to the baseline level
Thrombin generation; [14]
  inhibition of thrombin generation over time: maintained up to 120 min during infusion
[5]
  APT402 plasma concentration over time: maintained up to 120 min during infusion
[6]; at 60 and 110 min
  ADP-induced (50 uM) platelet aggregation in rabbit PRP: effectively inhibited
[6]; at 180 min
  ADP-induced (50 uM) platelet aggregation in rabbit PRP: returned to the baseline level
[6]; [14]
  inhibition of ADP-induced platelet aggregation over time: maintained up to 120 min during infusion
[7]
  elimination half-life (t1/2): 6 h
[8]
  time by which detectable in the plasma after administration (ELISA): ≤ 30 min
[9]
  deaths, increased bleeding or gross side effects: no deaths or increased bleeding or gross side effects
  reduction of collagen deposition: 33%
[10]
  peak thrombin concentration: mimicked
  time to peak thrombin: mimicked
[10]; ADP-activated human PRP
  inhibition of thrombin generation: comparable inhibitory effects
Platelet aggregation; 1 h after dosing
  inhibition of 20 μM ADP-induced ex vivo platelet aggregation: 90%
Platelet aggregation; 6 h after dosing
  inhibition of 20 μM ADP-induced ex vivo platelet aggregation: 80%
Platelet aggregation; by 10 min after dosing
  inhibition of 20 μM ADP-induced ex vivo platelet aggregation: 95%
Arterial thrombosis; rabbit EIM, 24 ug/kg/min
  thrombus weight compared with any other treatments: lowest thrombus weight
Arterial thrombosis; rabbit EIM, 0.2 mg/kg IV bolus then 12 ug/kg/min
  occlusion within 2 h: completely prevented occlusion
Arterial thrombosis; rabbit EIM, 0.2 mg/kg IV bolus then 24 ug/kg/min
  occlusion within 2 h: completely prevented occlusion
Arterial thrombosis; rabbit EIM, infusion 4, 12, 24 μg/kg/min
  thrombosis weight: dose-dependently reduced
Arterial thrombosis; rabbit, in vivo
  bleeding time (BT): did not affect
  blood pressure (mean arterial pressure): did not affect
  heart rate: did not affect
  partial thromboplastin time: did not affect
  prothrombin time: did not affect
[11]
  binding to thrombus: bound to thrombus
  signal in the non-injured control carotid: no increased signal

B2: APT102: soluble apyrase, enhanced form of soluble CD39L3 R67G T69R (SEQ ID NO: 2) (protein)
chain: EVLPPGLKYGIVLDAGSSGTRVYVYQWPAEKENNTGVVSQTFKCSVKGSGISSYGNNPQDVPRAFEECMQKVKGQVPSHLHGSTPIHLGATAGMRLLRLQNETAANEVLESIQSYFKSQPFDFRGAQIISGQEEGVYGWITANYLMGNFLEKNLWHMWVHPHGVETTGALDLGGASTQISFVAGEKMDLNTSDIMQVSLYGYVYTLYTHSFQCYGRNEAEKKFLAMLLQNSPTKNHLTNPCYPRDYSISFTMGHVFDSLCTVDQRPESYNPNDVITFEGTGDPSLCKEKVASIFDFKACHDQETCSFDGVYQPKIKGPFVAFAGFYYTASALNLSGSFSLDTFNSSTWNFCSQNWSQLPLLLPKFDEVYARSYCFSANYIYHLFVNGYKFTEETWPQIHFEKEVGNSSIAWSLGYMLSLTNQIPAESPLIRLPIEPPV
[2]
  inhibition of ADP-induced human platelet aggregation: dose-dependently inhibits
[12]
  reduction in LPS-induced FX activation: no effect
[13]
  reduction in LPS-induced FX activation: no effect
[9]
  deaths, increased bleeding or gross side effects: no deaths or increased bleeding or gross side effects
  reduction of collagen deposition: 11%
[10]
  peak thrombin concentration: modest inhibitory effect
  time to peak thrombin: modest inhibitory effect
